Target: Apolipoprotein A-1 Milano (ApoA-1M)
Sequence (chain, as listed by the source): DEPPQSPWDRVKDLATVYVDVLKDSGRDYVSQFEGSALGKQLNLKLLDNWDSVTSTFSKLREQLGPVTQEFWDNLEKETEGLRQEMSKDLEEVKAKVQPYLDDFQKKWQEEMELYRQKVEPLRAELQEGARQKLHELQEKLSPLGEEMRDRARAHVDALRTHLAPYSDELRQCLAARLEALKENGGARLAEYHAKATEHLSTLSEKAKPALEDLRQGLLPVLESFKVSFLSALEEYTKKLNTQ

B1: outer membrane protease 3B (Protease 7 precursor, or OmpT) (protein)
chain: STETLSFTPDNINADISLGTLSGKTKERVYLAEEGGRKVSQLDWKFNNAAIIKGAINWDLMPQISIGAAGWTTLGSRGGNMVDQDWMDSSNPGTWTDESRHPDTQLNYANEFDLNIKGWLLNEPNYRLGLMAGYQESRYSFTARGGSYIYSSEEGFRDDIGSFPNGERAIGYKQRFKMPYIGLTGSYRYEDFELGGTFKYSGWVESSDNDEHYDPGKRITYRSKVKDQNYYSVAVNAGYYVTPNAKVYVEGAWNRVTNKKGNTSLYDHNNNTSDYSKNGAGIENYNFITTAGLKYTF
ApoA-1M K238/K239 truncated species (% total ApoA-1M), Capture pool, ompT+ strain ΔdppAΔoppAΔmalE (% total ApoA-1M): 1.9
ApoA-1M K238/K239 truncated species (% total ApoA-1M), DEAE pool, ompT+ strain ΔdppAΔoppAΔmalE (% total ApoA-1M): 1.3
ApoA-1M K238/K239 truncated species (% total ApoA-1M), DEAE post-peak pool, ompT+ strain ΔdppAΔoppAΔmalE (% total ApoA-1M): 7
ApoA-1M K238/K239 truncated species (% total ApoA-1M), selected DEAE post-peak fraction, ompT+ strain ΔdppAΔoppAΔmalE (% total ApoA-1M): 14.2
K238/K239 truncation of ApoA-1M, ompT+ strain against ΔompT strain: marked (~5- to 20-fold) reduction in the amount of truncated ApoA-1M in the GB004 strain compared with the 3K0 strain

Reference: US20130029377
